Data from US20180284135A1.

Molecular target: T1, intact recombinant human POSTN (periostin, SEQ ID NO: 1)
T1 chain: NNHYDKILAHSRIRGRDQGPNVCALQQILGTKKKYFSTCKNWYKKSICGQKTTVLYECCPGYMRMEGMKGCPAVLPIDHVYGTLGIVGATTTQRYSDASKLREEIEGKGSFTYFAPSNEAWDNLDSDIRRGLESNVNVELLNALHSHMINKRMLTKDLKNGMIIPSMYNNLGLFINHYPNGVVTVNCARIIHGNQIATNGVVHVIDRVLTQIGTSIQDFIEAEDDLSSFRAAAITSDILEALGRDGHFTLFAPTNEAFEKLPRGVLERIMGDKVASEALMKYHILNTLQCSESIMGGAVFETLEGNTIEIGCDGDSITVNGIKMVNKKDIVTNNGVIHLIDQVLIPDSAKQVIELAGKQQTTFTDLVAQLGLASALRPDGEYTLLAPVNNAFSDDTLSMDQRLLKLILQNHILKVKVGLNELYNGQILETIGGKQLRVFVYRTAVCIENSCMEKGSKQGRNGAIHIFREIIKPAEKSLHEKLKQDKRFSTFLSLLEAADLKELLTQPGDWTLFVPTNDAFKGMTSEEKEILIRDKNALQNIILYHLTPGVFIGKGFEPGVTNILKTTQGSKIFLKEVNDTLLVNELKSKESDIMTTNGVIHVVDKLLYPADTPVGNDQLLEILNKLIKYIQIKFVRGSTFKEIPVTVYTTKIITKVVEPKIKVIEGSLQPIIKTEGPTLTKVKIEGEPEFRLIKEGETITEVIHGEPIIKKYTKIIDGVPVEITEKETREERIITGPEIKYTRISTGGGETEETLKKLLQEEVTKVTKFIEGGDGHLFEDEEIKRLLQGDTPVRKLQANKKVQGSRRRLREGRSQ

B1: human CatK of SEQ ID NO: 19 (Cathepsin K) (protein)
chain: APDSVDYRKKGYVTPVKNQGQCGSCWAFSSVGALEGQLKKKTGKLLNLSPQNLVDCVSENDGCGGGYMTNAFQYVQKNRGIDSEDAYPYVGQEESCMYNPTGKAAKCRGYREIPEGNEKALKRAVARVGPVSVAIDASLTSFQFYSKGVYYDESCNSDNLNHAVLAVGYGIQKGNKHWIIKNSWGENWGNKGYILMARNKNNACGIANLASFPKM
  CatK digestion of human recombinant POSTN (SDS-PAGE, LC-MS/MS): human POSTN is a substrate to CatK-dependent enzymatic digestion that is generating large amount of several peptides
